Results taken from patent US20260008818A1, “CYCLIC PEPTIDE OR SALT THEREOF, AND USES THEREOF” (FUJIFILM Corporation, priority 2023, published 2026).
Bridge positions count the residues as written; N and C are the ends. Ends that are not written are not given here. COCH2 = acetyl group that carries the bridge

How the values were obtained:
[1] = biological target: T1, FGFR3 Protein, Human, Recombinant (ECD, His Tag) (Sino Biological, 16044-H08H) (human, UniProt P22607 23-375); test: SPR, peptide immobilized, 1 umol/L FGFR
T1 construct: extracellular domain; bought reagent; not shown: His tag
T1 sequence (looked up): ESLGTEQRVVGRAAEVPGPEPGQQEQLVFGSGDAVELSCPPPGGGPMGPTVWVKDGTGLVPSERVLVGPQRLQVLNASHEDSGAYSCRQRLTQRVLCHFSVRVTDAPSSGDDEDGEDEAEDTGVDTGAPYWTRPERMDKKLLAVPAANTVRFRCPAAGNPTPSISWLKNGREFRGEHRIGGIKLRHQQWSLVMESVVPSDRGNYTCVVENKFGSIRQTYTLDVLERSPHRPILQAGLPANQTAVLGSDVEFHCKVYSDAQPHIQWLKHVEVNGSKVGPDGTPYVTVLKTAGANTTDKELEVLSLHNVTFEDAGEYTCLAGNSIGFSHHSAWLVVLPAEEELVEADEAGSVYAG
Protocol: (§1) A CM5 sensor chip (Cytiva, 29149603) was set in Biacore-T200 (manufactured by Cytiva) which is a surface plasmon resonance device, and an HBS-EP buffer (Cytiva, BR100826) was added as a running buffer at a flow rate of 10 μL/min to equilibrate the flow channel. Next, 70 μL of a mixed aqueous solution of 0.2 mol/L 1-(3-dimethylaminopropyl)-3-ethylcarbodiimide (EDC) and 0.05 mol/L N-hydroxysuccinimide (NHS) was added to activate the sensor chip. Then, a cyclic peptide prepared to 2 mg/mL in HBS-EP buffer was added thereto to perform immobilization at about 200 RU. Thereafter, the blocking treatment was performed with an ethanolamine solution. In addition, in another flow channel of the same sensor chip, blocking treatment was performed immediately after activation without […].
(§2) After various FGFRs (FGFR1 Protein, Human, Recombinant (His Tag) (Sino Biological, 10616-H08H), FGFR3 Protein, Human, Recombinant (ECD, His Tag) (Sino Biological, 16044-H08H), FGFR4 Protein, Human, Recombinant (His Tag) (Sino Biological, 10538-H08H)) diluted with HBS-EP to 1 μmol/L at 25° C. was added to each flow channel of the cyclic peptide-immobilized sensor chip prepared above, for 10 minutes, HBS-EP was allowed to flow as a running buffer for 30 minutes, and the binding of various FGFRs to the cyclic peptide was measured. […] The binding amount of the cyclic peptide was evaluated from the difference between the measured value of Biacore-T200 in the flow channel in which the cyclic peptide was immobilized and the measured value of Biacore-T200 in the flow channel in which the cyclic peptide was not immobilized, in a case where 1 μmol/L FGFR was allowed to flow.
(§3) The binding amount of FGFR evaluated above was normalized to the binding amount of FGFR molecules per one molecule of the cyclic peptide using the molecular weights of the cyclic peptide and FGFR, and the binding affinity to FGFR was evaluated according to the following evaluation criteria.

[2] = biological target: T2, FGFR4 Protein, Human, Recombinant (His Tag) (Sino Biological, 10538-H08H) (human, UniProt P22455 22-369); test: SPR, peptide immobilized, 1 umol/L FGFR
T2 construct: bought reagent; not shown: His tag
T2 sequence (looked up): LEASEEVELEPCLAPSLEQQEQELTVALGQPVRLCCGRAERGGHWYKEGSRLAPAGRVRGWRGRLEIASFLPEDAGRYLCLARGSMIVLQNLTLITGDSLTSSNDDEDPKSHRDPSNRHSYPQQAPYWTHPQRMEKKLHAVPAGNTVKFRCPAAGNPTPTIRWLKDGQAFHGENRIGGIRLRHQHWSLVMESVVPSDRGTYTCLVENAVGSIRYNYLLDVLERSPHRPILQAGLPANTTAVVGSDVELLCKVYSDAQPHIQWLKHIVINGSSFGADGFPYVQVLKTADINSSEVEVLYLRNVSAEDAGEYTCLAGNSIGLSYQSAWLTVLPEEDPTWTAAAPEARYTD
Protocol: as §1, §2, §3

[3] = biological target: T3, FGFR1 Protein, Human, Recombinant (His Tag) (Sino Biological, 10616-H08H) (human, UniProt P11362 22-376); test: SPR, peptide immobilized, 1 umol/L FGFR
T3 construct: bought reagent; not shown: His tag
T3 sequence (looked up): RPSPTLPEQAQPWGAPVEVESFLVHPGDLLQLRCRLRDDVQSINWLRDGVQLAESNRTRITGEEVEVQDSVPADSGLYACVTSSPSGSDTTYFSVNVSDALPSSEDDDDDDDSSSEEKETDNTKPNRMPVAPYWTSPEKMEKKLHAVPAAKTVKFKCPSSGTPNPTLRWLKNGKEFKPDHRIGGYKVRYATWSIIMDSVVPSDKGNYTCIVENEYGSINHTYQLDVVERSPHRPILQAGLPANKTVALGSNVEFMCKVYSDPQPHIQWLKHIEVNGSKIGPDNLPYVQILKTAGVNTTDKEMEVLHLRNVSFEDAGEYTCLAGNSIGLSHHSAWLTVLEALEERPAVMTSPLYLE
Protocol: as §1, §2, §3

[4] = biological target: T4, Recombinant Human FGFR1 alpha (IIIc) Fc Chimera Protein, CF (R&D systems, 658-FR-050) (human, UniProt P11362 22-376); test: SPR, FGFR1-Fc immobilized, 10 nmol/L peptide
T4 construct: bought reagent; not shown: Fc of the bought chimera
T4 sequence (looked up): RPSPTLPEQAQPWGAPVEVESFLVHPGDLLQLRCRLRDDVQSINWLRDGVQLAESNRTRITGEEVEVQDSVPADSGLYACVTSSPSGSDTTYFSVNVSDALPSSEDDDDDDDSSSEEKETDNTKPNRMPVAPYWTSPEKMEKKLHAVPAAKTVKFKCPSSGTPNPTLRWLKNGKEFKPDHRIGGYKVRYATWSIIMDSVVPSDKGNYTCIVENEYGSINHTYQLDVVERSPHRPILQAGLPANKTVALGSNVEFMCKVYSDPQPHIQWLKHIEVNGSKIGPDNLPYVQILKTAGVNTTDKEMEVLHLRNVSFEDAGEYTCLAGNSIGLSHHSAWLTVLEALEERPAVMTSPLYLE
Protocol: A CM5 sensor chip (Cytiva, 29149603) was set in Biacore-T200 (manufactured by Cytiva) which is a surface plasmon resonance device, and an HBS-EP buffer (Cytiva, BR100826) was added as a running buffer at a flow rate of 10 μL/min to equilibrate the flow channel. Next, 70 μL of a mixed aqueous solution of 0.2 mol/L 1-(3-dimethylaminopropyl)-3-ethylcarbodiimide (EDC) and 0.05 mol/L N-hydroxysuccinimide (NHS) was added to activate the sensor chip. Then, Recombinant Human FGFR 1 alpha (IIIc) Fc Chimera Protein CF (R&D systems, 658-FR-050) prepared at 50 nmol/L in an Acetate 4.5 buffer (Cytiva, BR100350) was added thereto to perform immobilization at about 5000 RU. Thereafter, the blocking treatment was performed with an ethanolamine solution. In addition, in another flow channel of the same sensor chip, blocking treatment was performed immediately after activation without immobilizing FGFR.
A cyclic peptide diluted to 10 nmol/L using HBS-EP was added to each flow channel of the FGFR-immobilized sensor chip produced above at 25° C. for 10 minutes, then HBS-EP was allowed to flow as a running buffer for 30 minutes, and the binding of the cyclic peptide to FGFR was measured. Thereafter, a regeneration treatment of removing the bound cyclic peptide was performed by repeating the flow of a regeneration liquid in which sodium chloride powder was dissolved in Glysine 1.5 (Cytiva, BR100354) to a final concentration of 0.15 mol/L for 1 minute in each flow channel twice. The binding amount of the cyclic peptide was evaluated from the difference between the measured value of Biacore-T200 in the flow channel in which FGFR was immobilized and the measured value of Biacore-T200 in the flow channel in which FGFR was not immobilated, in a case where a 10 nmol/L cyclic peptide was allowed to flow.

B1: SEQ ID NO: 382 (peptide)
peptide: HCSYERLQFHGHEAPFRVK(COCH2)VKKK
modifications: thioether 2-19; also: acetyl defined on Orn side-chain amine, here on K
notes: chemically synthesized
[1]
  binding amount (SPR, FGFR molecules bound per molecule of cyclic peptide at 1 umol/L FGFR): 0.01 to 0.05 moleculesoffgfr/onemoleculeofthecyclicpeptide
[2]
  binding amount (SPR, FGFR molecules bound per molecule of cyclic peptide at 1 umol/L FGFR): ≥ 0.05 moleculesoffgfr/onemoleculeofthecyclicpeptide
[3]
  binding amount (SPR, FGFR molecules bound per molecule of cyclic peptide at 1 umol/L FGFR): ≥ 0.05 moleculesoffgfr/onemoleculeofthecyclicpeptide
[4]
  binding amount (SPR, cyclic peptide molecules bound per one molecule of FGFR at 10 nmol/L peptide): ≥ 0.7 moleculesofthecyclicpeptide/onemoleculeoffgfr
